Test results as given in doi:10.1101/2019.12.19.882902.

Experiments:
[1] = target: AF647-TFIIB (TFIIB-SNAP);TBP;TFIIF;RNA polymerase II (human;human;human;human, UniProt Q00403;P20226;P35269;P13984;P24928;P30876;P19387;O15514;P19388;P61218;P62487;P52 …, |||); assay: EMSA
[2] = target: TFIIB (untagged);TBP;TFIIF;RNA polymerase II (human;human;human;human, UniProt Q00403;P20226;P35269;P13984;P24928;P30876;P19387;O15514;P19388;P61218;P62487;P52 …, |||); assay: EMSA
Sequence of TFIIB (untagged);TBP;TFIIF;RNA polymerase II (Q00403 whole entry, chain 1 of 2): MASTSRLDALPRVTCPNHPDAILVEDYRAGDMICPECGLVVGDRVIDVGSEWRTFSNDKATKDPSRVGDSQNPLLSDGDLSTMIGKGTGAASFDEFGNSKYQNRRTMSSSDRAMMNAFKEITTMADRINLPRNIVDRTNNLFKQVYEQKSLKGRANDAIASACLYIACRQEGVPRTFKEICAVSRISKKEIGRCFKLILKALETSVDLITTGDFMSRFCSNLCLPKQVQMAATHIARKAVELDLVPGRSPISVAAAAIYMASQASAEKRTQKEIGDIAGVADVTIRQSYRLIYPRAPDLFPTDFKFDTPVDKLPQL
Sequence of TFIIB (untagged);TBP;TFIIF;RNA polymerase II (P20226 whole entry, chain 2 of 2): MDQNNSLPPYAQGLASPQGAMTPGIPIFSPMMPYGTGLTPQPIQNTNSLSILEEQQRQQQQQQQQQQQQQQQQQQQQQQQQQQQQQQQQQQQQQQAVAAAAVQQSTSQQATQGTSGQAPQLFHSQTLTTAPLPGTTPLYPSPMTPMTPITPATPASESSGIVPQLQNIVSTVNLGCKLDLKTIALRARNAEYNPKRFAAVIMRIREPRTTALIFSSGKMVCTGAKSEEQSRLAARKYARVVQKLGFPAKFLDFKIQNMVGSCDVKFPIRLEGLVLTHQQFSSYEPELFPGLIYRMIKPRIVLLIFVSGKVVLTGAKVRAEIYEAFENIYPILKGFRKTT

Sequence of AF647-TFIIB (TFIIB-SNAP);TBP;TFIIF;RNA polymerase II (Q00403 whole entry, chain 1 of 2): as the sequence (Q00403 whole entry, chain 1 of 2) above
Sequence of AF647-TFIIB (TFIIB-SNAP);TBP;TFIIF;RNA polymerase II (P20226 whole entry, chain 2 of 2): as the sequence (P20226 whole entry, chain 2 of 2) above

B1: three piece AdMLP DNA (-40 to +37), pre-melted bubble (dsDNA)
DNA 1: AAGGGGGGCTATAAAAGGGGGTGGGGGCGCGAAGCAGGAGTAGACTATCTTTAATCACTA
DNA 2: CCTGAGGTTAGTGTGAGTAGTGATTAAAGATAGTGATGAGGACGAACGCGCCCCCACCCCCTTTTATAGCCCCCCTT
DNA 3: CTCACACTAACCTCAGG
Question: Does B1 bind [1]?
Answer: binds

Question: Does B1 bind [2]?
Answer: binds
